Results from the supplement of paper PMC10567573.
± gives the standard deviation.

Assay: protein stability index of a GFP-peptide fusion (GPS, HEK-293T) (PSI 1-6); higher = more stable
[1] = treatment: DMSO, c terminus: a fixed tail appended
[2] = treatment: MLN4924 1 uM, 8 h, c terminus: a fixed tail appended
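Also: 24-mer peptide tiles fused after GFP, lentivirally expressed, FACS-sorted into six equal bins by GFP/DsRed ratio, decoded by Illumina sequencing, PSI is the read-weighted mean bin number.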

Sequence | protein stability index [1] | protein stability index [2] | protein stability index (treatment: DMSO, c terminus: native) | protein stability index (treatment: MLN4924 1 uM, 8 h, c terminus: native)
VTNPHSSQWKDPALSQLICFCRES [GADD45A] | 2.5 ± 0.24 | 2.67 ± 0.33 | – | –
DTRLGQVSALPLPPAMKRYLLYQ [SPSB2] | – | – | 2.4 ± 0.42 | 2.69 ± 0.3
RESERRNHSLARHADILAAVETRL [FBXO28] | 3.71 ± 0.15 | 3.9 ± 0.27 | – | –
GPGFHAGTSALWRHLRSAHRRELE [ZBED3] | 2.73 ± 0.34 | 3.13 ± 0.53 | – | –
MWGQSLLPPVSTSFTTGGLRIPFP [TNXB] | 2.3 ± 0.41 | 2.42 ± 0.16 | – | –
SDDEMELEETEPPLEPEDALSDAE [P3H4] | 5.5 ± 0.27 | 5.59 ± 0.24 | – | –
MAALSRALGPLRTPAPPLWIGLFL | 2.35 ± 0.26 | 2.28 ± 0.63 | – | –
EPANLDILDTAGQAEFTAMRDQYM [RIT1] | 4.83 ± 0.24 | 4.67 ± 0.2 | – | –
RRPSPVLRHLELLDEFARENIDSL [SCNN1D] | 3.31 ± 0.51 | 3.56 ± 0.38 | – | –
RYNRKYLMCGGIAFWSLVTLGSSF [SPNS1] | 2.68 ± 0.88 | 2.77 ± 0.96 | – | –
ANFSLGSINQRLNKRERSKLKNLR [RNF180] | 2.91 ± 0.35 | 3.28 ± 0.43 | – | –
QLHIFNTLRSHLIDKGMLTSTTED [CDS2] | 2.93 ± 0.2 | 3.09 ± 0.26 | – | –
TVVPLDDATQEYKEKLQKCLEPLE [TRIM39] | 5.27 ± 0.13 | 5.22 ± 0.21 | – | –
HYEFNLSRMKFRGNGALSNISDLP [LCOR] | 2.7 ± 0.18 | 2.76 ± 0.23 | – | –
RVVCGIDSSMILTVPGQALACGSN [NEK8] | 2.73 ± 0.12 | 2.52 ± 0.29 | – | –
RHDGYATNDGNHPSCQETRDYAPP [RBMY1A1] | 5 ± 0.31 | 4.93 ± 0.084 | – | –
MGSSQATMTSSQSMNFSMMSTNTV [CLINT1] | 3.28 ± 0.27 | 3.64 ± 0.25 | – | –
GRRVNAKMPVYSGSRPACQLQVPT [ELOA2] | 3.11 ± 0.32 | 3.49 ± 0.44 | – | –
LEAGASAASTAAALENLQVEASCS [TRIM39] | 5.36 ± 0.2 | 5.3 ± 0.37 | – | –
FFIYGQVLYTDKTYAMGHLIQRKK [TNFSF13B] | 2.4 ± 1 | 2.12 ± 0.53 | – | –
ALKHPWISHRSTVASCMHRQETVD [CAMK2A] | 3.18 ± 0.13 | 3.35 ± 0.16 | – | –
EPFSARVLVLCVFNSILPGVLILF [SOAT1] | 3.05 ± 0.14 | 3.06 ± 0.22 | – | –

Sequence | protein stability index [1] | protein stability index [2] | protein stability index (treatment: DMSO, c terminus: native) | protein stability index (treatment: MLN4924 1 uM, 8 h, c terminus: native)
DGEVPQHAGKKGKLSEHLRYCDSI [BRD3] | 4.59 ± 0.23 | 4.76 ± 0.23 | – | –
MQELTEMLGFRPYRFYFYMWKFVS [SLC6A17] | 2.39 ± 0.21 | 2.35 ± 0.35 | – | –
PFGESNGNGVHVCNVKYKRWALLS [KLHDC10] | 2.08 ± 0.22 | 2.26 ± 0.33 | – | –
EEEKEWAFEESKIDEHHFVAVALR [AASDHPPT] | 3.73 ± 0.37 | 3.84 ± 0.42 | – | –
QGLKLYAVEISDHPGEHEVGEPEF [CPXM2] | 4.5 ± 0.55 | 5.11 ± 0.06 | – | –
KWKVGIPSDPLVSIGALISKAHLE [ALDH8A1] | 2.48 ± 0.11 | 2.74 ± 0.17 | – | –
LRTLSRAKFWPRRRFNFFVLENNL [DNAAF3] | 2.33 ± 0.99 | 2.15 ± 0.087 | – | –
SQQLQLIDEQDSYIQSRADTMQNI [STX5] | 4.59 ± 0.21 | 4.74 ± 0.26 | – | –
RDAAGKPQRPRSAPRTSSCAERLQ [FCHO1] | 4.75 ± 0.15 | 4.68 ± 0.098 | – | –
LCQKQVKAQLPRRESERRNHSLAR [FBXO28] | 3.81 ± 0.14 | 4.23 ± 0.17 | – | –
HNAWLSYSLLPQSTAPGLFLVSTH [PCDHGC5] | 2.51 ± 0.58 | 2.63 ± 0.56 | – | –
EYVPGGELFSYLRNRGRFSSTTGL [PRKX] | 2.53 ± 0.18 | 2.82 ± 0.27 | – | –
RHRLITQVYLSHTAWTEACQVEVR [INTS4] | 2.37 ± 0.15 | 2.43 ± 0.51 | – | –
AAKQNHVTADDFVQTSVIGSNGYI [EHMT1] | 3.56 ± 0.17 | 3.68 ± 0.1 | – | –
VSGDTSKLMKILQPQDVDLALDSG [RIPK4] | 4.57 ± 0.16 | 4.68 ± 0.32 | – | –
SWNNNDRSLNVFVKEDDKLIFHRH [SPSB1] | 3.17 ± 0.13 | 3.29 ± 0.21 | – | –
SYEKAVKTRVDLKELGQSQKEQGL [PDZK1] | 4.75 ± 0.15 | 4.84 ± 0.12 | – | –
ERLQAIAEKRKRQAEIENKRRQLE [PALM] | 3.74 ± 0.16 | 3.73 ± 0.27 | – | –
LTDDDVVDWDEEYPPQMGEEYSQI [BTBD10] | 5.15 ± 0.11 | 5.22 ± 0.19 | – | –
SGASPKESTNPEKAHETLHQSLSL [CDC25A] | 4.95 ± 0.12 | 4.83 ± 0.11 | – | –
IQRIDENVLGAQLDVEAAHSEILK [STX5] | 4.15 ± 0.17 | 4.22 ± 0.25 | – | –
TVEKPGGKKVAVVLMDTQGAFDSQ [ATL3] | 4.18 ± 0.13 | 4.16 ± 0.22 | – | –
